# Where a chain is given by its changes, count along the chain named. Numbers in names are those of the source. Read-outs that look alike come from different tables or passages of the source.
# T1: full-length C. elegans MEI-1 (C. elegans, UniProt P34808 1-472)
# T1 sequence (looked up): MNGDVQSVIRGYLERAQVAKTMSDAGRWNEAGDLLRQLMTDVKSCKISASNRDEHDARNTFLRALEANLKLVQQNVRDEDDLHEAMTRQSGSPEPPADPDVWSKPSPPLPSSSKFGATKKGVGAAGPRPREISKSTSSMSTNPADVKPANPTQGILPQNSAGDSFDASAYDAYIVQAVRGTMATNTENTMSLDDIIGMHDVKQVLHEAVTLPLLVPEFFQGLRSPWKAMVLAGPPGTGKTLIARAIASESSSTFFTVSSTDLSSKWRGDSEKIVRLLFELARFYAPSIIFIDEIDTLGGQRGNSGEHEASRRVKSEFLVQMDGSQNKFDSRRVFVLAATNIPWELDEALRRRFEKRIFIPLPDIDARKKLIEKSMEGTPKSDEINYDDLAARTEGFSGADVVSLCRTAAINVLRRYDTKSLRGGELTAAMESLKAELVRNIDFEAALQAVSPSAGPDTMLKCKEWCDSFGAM
# B1: wild-type KATNAL1/B1-con80 complex (full length human KATNAL1 with the con80 domain, residues 411-655, of human KATNB1) (complex)
# chain 1: MNLAEICDNAKKGREYALLGNYDSSMVYYQGVMQQIQRHCQSVRDPAIKGKWQQVRQELLEEYEQVKSIVSTLESFKIDKPPDFPVSCQDEPFRDPAVWPPPVPAEHRAPPQIRRPNREVRPLRKEMAGVGARGPVGRAHPISKSEKPSTSRDKDYRARGRDDKGRKNMQDGASDGEMPKFDGAGYDKDLVEALERDIVSRNPSIHWDDIADLEEAKKLLREAVVLPMWMPDFFKGIRRPWKGVLMVGPPGTGKTMLAKAVATECGTTFFNVSSSTLTSKYRGESEKLVRLLFEMARFYAPTTIFIDEIDSICSRRGTSDEHEASRRVKSELLIQMDGVGGALENDDPSKMVMVLAATNFPWDIDEALRRRLEKRIYIPLPTAKGRAELLKINLREVELDPDIQLEDIAEKIEGYSGADITNVCRDASLMAMRRRINGLSPEEIRALSKEELQMPVTKGDFELALKKIAKSVSAADLEKYEKWMVEFGSA
# chain 2: AATAKEAAKPSPAMDVQFPVPNLEVLPRPPVVASTPAPKAEPAIIPATRNEPIGLKASDFLPAVKIPQQAELVDEDAMSQIRKGHDTMCVVLTSRHKNLDTVRAVWTMGDIKTSVDSAVAINDLSVVVDLLNIVNQKASLWKLDLCTTVLPQIEKLLQSKYESYVQTGCTSLKLILQRFLPLITDMLAAPPSVGVDISREERLHKCRLCYKQLKSISGLVKSKSGLSGRHGSTFRELHLLMASLD
# B2: full length human KATNAL1 (E308Q) (enzyme, UniProt Q9BW62 1-490, looked up)
# chain: B1 chain 1 with E308Q
# B3: KATNAL1 (E308Q)/B1-con80 complex (complex, human)
# chain 1: B1 chain 1 with E308Q
# chain 2: B1 chain 2
# B4: con80 domain (residues 411-655) of human KATNB1 (domain or fragment, UniProt Q9BVA0 411-655, looked up)
# chain: B1 chain 2
# B5: full-length C. elegans MEI-2 (natural protein, UniProt O44740 1-280, looked up)
# chain: MSGLDDRKKLTHAKNRKPLNDIPKSAENRPNTRSTSSRRGAEKDVPITFIGSSRTVKADLPEFTNTRSRRPLHSESKKELSRNPVSRGEEHSSSLPKSSPESSVSVMSSNASLWSACTEEVNKIGVCAKRESRNLRVYKMKSFTSNMEQILSNDNQLAPTVIRILNSRNSWCLNSCHACLTFIMENITSDNYGKRSACLKALASITNSLLDTIIGFASTKTRRIGVDVVAEERAAKATECIHNFRKIVKNRDKIYKQIDQETIYKLDAILERLKKVSSHK
# B6: C. elegans MEI-1/MEI-2 complex (full-length MEI-1 with full-length MEI-2) (complex)
# chain 1: T1 sequence (looked up)
# chain 2: B5 chain
# How the values were obtained:
# Test in all cases: SEC-MALS
# SEC-MALS [1] = target: the molecule itself
# SEC-MALS [2] = target: the molecule itself; remark: listed apart in the source
# [3] = target: B2
# [4] = target: full length human KATNAL1 (human, UniProt Q9BW62 1-490)
# [5] = target: T1, full-length C. elegans MEI-1
Binder,stoichiometry N (SEC-MALS [1]),stoichiometry N (SEC-MALS [2]),further results
B1,2,–,–
B2,6,–,–
B3,6,2,–
B4,–,–,binding result [3]: binds; binding result [4]: binds
B5,–,–,binding result [5]: binds
B6,–,2,–

# From article doi:10.1101/197558 (bioRxiv, 2017)
